These are literature values, as cited in patent US10927175B2, “Method for treating cancer” (Sun Jet Biotechnology Inc., priority 2017, dated 2021).

For the data set, the system named is metastatic duodenal adenocarcinoma. To be noted: gradually decreasing prednisolone and replacing tacrolimus with sirolimus after nivolumab.

Turning to nivolumab, the allograft outcome is listed as “preserved” and the tumor outcome was “regressed”.
